# Where a chain is given by its changes, count along the chain named. Names may count otherwise.
# B1: NSD2 E1099K mutant protein (973-1226) (domain or fragment)
# chain: KLQREARETQESERKPPPYKHIKVNKPYGKVQIYTADISEIPKCNCKPTDENPCGFDSECLNRMLMFECHPQVCPAGEFCQNQCFTKRQYPETKIIKTDGKGWGLVAKRDIRKGEFVNEYVGELIDKEECMARIKHAHENDITHFYMLTIDKDRIIDAGPKGNYSRFMNHSCQPNCETLKWTVNGDTRVGLFAVCDIPAGTELTFNYNLDCLGNEKTVCRCGASNCSGFLGDRPKTSTTLSSEEKGKKTKKKTR
# B2: NSD2 T1150A mutant protein (973-1226) (domain or fragment)
# chain: B1 chain with K127E, T178A
# B3: wild-type NSD2 protein (973-1226) (domain or fragment)
# chain: B1 chain with K127E
# Target: T1, nucleosome with the 185-bp DNA fragment (human, UniProt P0C0S8 2-130; P62807 2-124; P68431 2-136; P62805 2-103)
# Assay: MST; 185-bp nucleosome
row,Kd,Binder
1,202 nM,B1
2,70 nM,B2
3,88 nM,B3

# Target: T1, nucleosome with the 185-bp DNA fragment
# Assay: nucleosome with 185-bp DNA
row,Kd,Binder
1,202 nM,B1
2,70 nM,B2
3,88 nM,B3

# Source: PMC8593083 (2021)
